Drawing on PMC4996995, this text covers binding for one sequence.

The target in this series is T1, (His)6-YycF, non-phosphorylated response regulator (Streptococcus pneumoniae TIGR4) (UniProt A0A0H2UQ68).
T1 sequence: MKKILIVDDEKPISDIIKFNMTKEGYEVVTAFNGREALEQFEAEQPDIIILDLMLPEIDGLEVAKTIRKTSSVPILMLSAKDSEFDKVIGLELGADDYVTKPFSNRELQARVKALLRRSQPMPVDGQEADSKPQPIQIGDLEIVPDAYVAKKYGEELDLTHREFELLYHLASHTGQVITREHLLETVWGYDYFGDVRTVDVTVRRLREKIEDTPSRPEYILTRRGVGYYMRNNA
The series can be described thus: EMSA. The settings on record: EMSA: 50 mM Tris-HCl pH 7.8, 500 mM NaCl, 4 mM MgCl2, 20 uL, 0.5-1.0 nM DNA, 0°C 30 min; 5% native PAGE, TBE, 4°C.

On to “CATTCGGAGAGAAGAAGACCTAAATTTACAGGAAAATAAAAAATACTTGCATCATTCTTTGAATTTTGATATAATTCTTTCTGTCAAATGTTTTGATTGTAAAAGTTTTTTGAAGAAGGAGGGATATGAAAAATGGACTACCAACGAATCAATGAATATTTAACATCTATATTTAACAATGTCCTTGTAATTGAGG (double strand) [amplicon A (PFabT promoter region)]”, for which the binding entry is “binds”.
